Reference: paper doi:10.1101/2022.02.09.479746 (bioRxiv, 2022)

B1: full-length FLAG-DFCP1 (Double FYVE Domain Containing Protein 1) (natural protein, human, UniProt Q9HBF4 1-777, looked up)
chain: MSAQTSPAEKGLNPGLMCQESYACSGTDEAIFECDECCSLQCLRCEEELHRQERLRNHERIRLKPGHVPYCDLCKGLSGHLPGVRQRAIVRCQTCKINLCLECQKRTHSGGNKRRHPVTVYNVSNLQESLEAEEMDEETKRKKMTEKVVSFLLVDENEEIQVTNEEDFIRKLDCKPDQHLKVVSIFGNTGDGKSHTLNHTFFYGREVFKTSPTQESCTVGVWAAYDPVHKVAVIDTEGLLGATVNLSQRTRLLLKVLAISDLVIYRTHADRLHNDLFKFLGDASEAYLKHFTKELKATTARCGLDVPLSTLGPAVIIFHETVHTQLLGSDHPSEVPEKLIQDRFRKLGRFPEAFSSIHYKGTRTYNPPTDFSGLRRALEQLLENNTTRSPRHPGVIFKALKALSDRFSGEIPDDQMAHSSFFPDEYFTCSSLCLSCGVGCKKSMNHGKEGVPHEAKSRCRYSHQYDNRVYTCKACYERGEEVSVVPKTSASTDSPWMGLAKYAWSGYVIECPNCGVVYRSRQYWFGNQDPVDTVVRTEIVHVWPGTDGFLKDNNNAAQRLLDGMNFMAQSVSELSLGPTKAVTSWLTDQIAPAYWRPNSQILSCNKCATSFKDNDTKHHCRACGEGFCDSCSSKTRPVPERGWGPAPVRVCDNCYEARNVQLAVTEAQVDDEGGTLIARKVGEAVQNTLGAVVTAIDIPLGLVKDAARPAYWVPDHEILHCHNCRKEFSIKLSKHHCRACGQGFCDECSHDRRAVPSRGWDHPVRVCFNCNKKPGDL
B2: MBP-DFCP1 112-415 (isolated GTPase domain), wild type (domain or fragment, human, UniProt Q9HBF4 112-415, looked up)
chain: NKRRHPVTVYNVSNLQESLEAEEMDEETKRKKMTEKVVSFLLVDENEEIQVTNEEDFIRKLDCKPDQHLKVVSIFGNTGDGKSHTLNHTFFYGREVFKTSPTQESCTVGVWAAYDPVHKVAVIDTEGLLGATVNLSQRTRLLLKVLAISDLVIYRTHADRLHNDLFKFLGDASEAYLKHFTKELKATTARCGLDVPLSTLGPAVIIFHETVHTQLLGSDHPSEVPEKLIQDRFRKLGRFPEAFSSIHYKGTRTYNPPTDFSGLRRALEQLLENNTTRSPRHPGVIFKALKALSDRFSGEIPDDQ
B3: MBP-DFCP1 112-415 R266Q (GTPase domain with the cancer-related mutation R266Q) (domain or fragment, human, UniProt Q9HBF4 112-415, looked up)
chain: NKRRHPVTVYNVSNLQESLEAEEMDEETKRKKMTEKVVSFLLVDENEEIQVTNEEDFIRKLDCKPDQHLKVVSIFGNTGDGKSHTLNHTFFYGREVFKTSPTQESCTVGVWAAYDPVHKVAVIDTEGLLGATVNLSQRTRLLLKVLAISDLVIYQTHADRLHNDLFKFLGDASEAYLKHFTKELKATTARCGLDVPLSTLGPAVIIFHETVHTQLLGSDHPSEVPEKLIQDRFRKLGRFPEAFSSIHYKGTRTYNPPTDFSGLRRALEQLLENNTTRSPRHPGVIFKALKALSDRFSGEIPDDQ

Biological target: the molecule itself
Test: SEC

Stoichiometry N, 2:
B1
B2
B3
